{"source": "paper PMC3282769", "about": "“New Insight into the Transcarbamylase Family: The Structure of Putrescine Transcarbamylase, a Key Catalyst for Fermentative Utilization of Agmatine” (PLoS ONE, 2012)", "key": {"[1]": {"system": "NCCCCN", "assay": "carbamylputrescine production, colorimetric (Archibald reaction); hyperbolic fit", "type": "biochemical, Enterococcus faecalis", "settings": "10 mM carbamylphosphate, 50 mM Tris-HCl pH 7, 37°C"}, "[2]": {"system": "NCCCCN", "assay": "purified protein", "settings": "10 mM carbamylphosphate, 50 mM Tris-HCl pH 7, 37°C, 230YGLY233 replaced by VSMG"}}}
{"substance": "PTC (putrescine transcarbamylase) (Enterococcus faecalis V583)", "values": [{"measurement": "Km", "setting": "[1]", "result": "1.41 ± 0.22", "unit": "mM"}]}
{"substance": "PTC (putrescine transcarbamylase) (Enterococcus faecalis V583; G231S/L232M/Y230V/Y233G)", "values": [{"measurement": "Km", "setting": "[2]", "result": "32.9 ± 8.8", "unit": "mM"}]}
